One test deals with PD-L1 (human) (UniProt Q9NZQ7).
The target in another test is CD28 (human) (UniProt P10747).

Chain of PD-L1 (human) (Q9NZQ7 19-290): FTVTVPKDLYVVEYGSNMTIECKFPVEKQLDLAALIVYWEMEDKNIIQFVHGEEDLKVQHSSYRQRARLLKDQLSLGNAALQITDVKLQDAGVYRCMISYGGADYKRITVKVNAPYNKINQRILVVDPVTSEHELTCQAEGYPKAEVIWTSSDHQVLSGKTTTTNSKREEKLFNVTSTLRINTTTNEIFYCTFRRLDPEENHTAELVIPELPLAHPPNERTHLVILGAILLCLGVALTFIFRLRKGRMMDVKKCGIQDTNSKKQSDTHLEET

Turning to “CD80 H18Y/Y31H/E35D/M47V/A71G/L85Q IgV-Fc (inert) (Fc fusion)”, the Jurkat/IL2 reporter RLU at 50 nM, K562/OKT3/PD-L1 aAPC with PD-L1 (human) and with CD28 (human) was 455 RLU each time.
As for “CD80 Q27H/E35D/M47L/L85Q/R94Q/E95K IgV-Fc (inert) (Fc fusion)”, the Jurkat/IL2 reporter RLU at 50 nM, K562/OKT3/PD-L1 aAPC with PD-L1 (human) and with CD28 (human) was 513 RLU each time.
With “CD80 Q27H/Q33L/E35D/M47V/N55D/L85Q/K89N IgV-Fc (inert) (Fc fusion)”, the Jurkat/IL2 reporter RLU at 50 nM, K562/OKT3/PD-L1 aAPC with PD-L1 (human) and in the test with CD28 (human) was 551 RLU in each case.
Regarding “CD80 Q33K/E35D/D46V/L85Q IgV-Fc (inert) (Fc fusion)”, the Jurkat/IL2 reporter RLU at 50 nM, K562/OKT3/PD-L1 aAPC with PD-L1 (human) and with CD28 (human) was 504 RLU each time.
Take “CD80 Q33K/E35D/M47V/K89E/K93R IgV-Fc (inert) (Fc fusion)”: the Jurkat/IL2 reporter RLU at 50 nM, K562/OKT3/PD-L1 aAPC with PD-L1 (human) and in the test with CD28 (human) was 415 RLU throughout.
Consider “CD80 Q33L/E35D/D46E/M47I IgV-Fc (inert) (Fc fusion)”, for which the Jurkat/IL2 reporter RLU at 50 nM, K562/OKT3/PD-L1 aAPC with PD-L1 (human) and with CD28 (human) was 554 RLU throughout.
In the case of “CD80 Q33L/E35D/M43I/L85Q/R94W IgV-Fc (inert) (Fc fusion)”, the Jurkat/IL2 reporter RLU at 50 nM, K562/OKT3/PD-L1 aAPC in the test with PD-L1 (human) and with CD28 (human) was 553 RLU each time.
With “CD80 Q33L/E35D/M43V/M47I/A71G IgV-Fc (inert) (Fc fusion)”, the Jurkat/IL2 reporter RLU at 50 nM, K562/OKT3/PD-L1 aAPC in the test with PD-L1 (human) and with CD28 (human) was 473 RLU throughout.
On to “CD80 Q33L/E35D/M47I IgV-Fc (inert) (Fc fusion)”, for which the Jurkat/IL2 reporter RLU at 50 nM, K562/OKT3/PD-L1 aAPC in the test with PD-L1 (human) and in the test with CD28 (human) was 423 RLU in each case.
For the substance “CD80 Q33L/E35D/M47I/L85Q IgV-Fc (inert) (Fc fusion)”, the Jurkat/IL2 reporter RLU at 50 nM, K562/OKT3/PD-L1 aAPC with PD-L1 (human) and with CD28 (human) was 432 RLU each time.
Regarding “CD80 Q33L/E35D/M47I/T62N/L85Q IgV-Fc (inert) (Fc fusion)”, the Jurkat/IL2 reporter RLU at 50 nM, K562/OKT3/PD-L1 aAPC in the test with PD-L1 (human) and with CD28 (human) was 463 RLU in each case.
“CD80 Q33L/E35D/M47L/A71G/F92S IgV-Fc (inert) (Fc fusion)”: the Jurkat/IL2 reporter RLU at 50 nM, K562/OKT3/PD-L1 aAPC with PD-L1 (human) and with CD28 (human) was 394 RLU in each case.
In the case of “CD80 Q33L/E35D/M47L/V68M/L85Q/E88D IgV-Fc (inert) (Fc fusion)”, the Jurkat/IL2 reporter RLU at 50 nM, K562/OKT3/PD-L1 aAPC in the test with PD-L1 (human) and with CD28 (human) was 572 RLU in each case.
For the substance “CD80 Q33L/E35D/M47V IgV-Fc (inert) (Fc fusion)”, the Jurkat/IL2 reporter RLU at 50 nM, K562/OKT3/PD-L1 aAPC with PD-L1 (human) and with CD28 (human) was 393 RLU throughout.
As for “CD80 Q33L/E35D/M47V/L85Q IgV-Fc (inert) (Fc fusion)”, the Jurkat/IL2 reporter RLU at 50 nM, K562/OKT3/PD-L1 aAPC with PD-L1 (human) and in the test with CD28 (human) was 556 RLU throughout.
For the substance “CD80 Q33L/E35D/M47V/T79A IgV-Fc (inert) (Fc fusion)”, the Jurkat/IL2 reporter RLU at 50 nM, K562/OKT3/PD-L1 aAPC in the test with PD-L1 (human) and with CD28 (human) was 527 RLU each time.
With “CD80 Q33L/E35D/N48K/L85Q/L97Q IgV-Fc (inert) (Fc fusion)”, the Jurkat/IL2 reporter RLU at 50 nM, K562/OKT3/PD-L1 aAPC with PD-L1 (human) and with CD28 (human) was 358 RLU in each case.
Regarding “CD80 Q33L/E35D/T41S/M43I IgV-Fc (inert) (Fc fusion)”, the Jurkat/IL2 reporter RLU at 50 nM, K562/OKT3/PD-L1 aAPC in the test with PD-L1 (human) and with CD28 (human) was 533 RLU in each case.
In the case of “CD80 Q33L/E35D/T41S/M47V IgV-Fc (inert) (Fc fusion)”, the Jurkat/IL2 reporter RLU at 50 nM, K562/OKT3/PD-L1 aAPC with PD-L1 (human) and with CD28 (human) was 481 RLU throughout.
Take “CD80 Q33R/E35D/D46E/M47I IgV-Fc (inert) (Fc fusion)”: the Jurkat/IL2 reporter RLU at 50 nM, K562/OKT3/PD-L1 aAPC in the test with PD-L1 (human) and with CD28 (human) was 522 RLU each time.

The record behind these values is patent US20220177587A1, “METHODS AND USES OF VARIANT CD80 FUSION PROTEINS AND RELATED CONSTRUCTS” (Alpine Immune Sciences, Inc., priority 2018, published 2022).
